The target of data set [1] is hPolεCD (insect), catalytic domain of DNA polymerase ε p261, iron-poor (7.3% iron) (human, UniProt Q07864 28-1194). In words: BLI; 100 mM NaCl; active enzyme concentration; kon 162 mM-1 s-1, koff 34.2e-3 s-1; EMSA: 20 mM Tris-Hepes pH 7.8, 100 mM NaCl, 2% glycerol, 2 mM TCEP, 0.2 mg/mL BSA, 0.5 uM DNA, 5 min room temperature; BLI: 30 mM Tris-Hepes pH 7.8, 100 or 150. The note with it: protein: recombinant; tags: cleavable N-terminal His-Tev, digested during purification; label: 5'-biotin-TEG on template (strand 1); template 5' overhang 9 nt, 3' overhang 3 nt; primer annealed at 2-fold excess. Background: BLI is a label-free optical method that tracks binding on a fibre tip over time.

The target of data set [2] is hPolεCD (E. coli), catalytic domain of DNA polymerase ε p261, CysX [4Fe-4S] cluster (63% iron) (human, UniProt Q07864 28-1194). Nature of the data set: BLI; 100 mM NaCl; active enzyme concentration; kon 252 mM-1 s-1, koff 41.9e-3 s-1; EMSA: 20 mM Tris-Hepes pH 7.8, 100 mM NaCl, 2% glycerol, 2 mM TCEP, 0.2 mg/mL BSA, 0.5 uM DNA, 5 min room temperature; BLI: 30 mM Tris-Hepes pH 7.8, 100 or 150. The note with it: protein: recombinant; tags: N-terminal His-Sumo, His-tag digested during purification; label: 5'-biotin-TEG on template (strand 1); template 5' overhang 9 nt, 3' overhang 3 nt; primer annealed at 2-fold excess.

The target in data set [3] is hPolεCDM (C654S/C663S), [4Fe-4S]-deficient (human, UniProt Q07864 28-1194, C654S;C663S). In words: EMSA; no mobility effect at 4-fold molar excess over DNA; EMSA: 20 mM Tris-Hepes pH 7.8, 100 mM NaCl, 2% glycerol, 2 mM TCEP, 0.2 mg/mL BSA, 0.5 uM DNA, 5 min room temperature; BLI: 30 mM Tris-Hepes pH 7.8, 100 or 150. The note with it: protein: recombinant; tags: N-terminal His-Sumo, His-tag digested during purification; label: 5'-Cy3; single strand. For orientation: A gel shift assay detects complexes by their altered migration in electrophoresis.

Two molecules from article PMC9581978, “The iron-sulfur cluster is essential for DNA binding by human DNA polymerase ε” can be followed below.

Sequence of hPolεCDM (C654S/C663S), [4Fe-4S]-deficient (Q07864 28-1194 C654S/C663S): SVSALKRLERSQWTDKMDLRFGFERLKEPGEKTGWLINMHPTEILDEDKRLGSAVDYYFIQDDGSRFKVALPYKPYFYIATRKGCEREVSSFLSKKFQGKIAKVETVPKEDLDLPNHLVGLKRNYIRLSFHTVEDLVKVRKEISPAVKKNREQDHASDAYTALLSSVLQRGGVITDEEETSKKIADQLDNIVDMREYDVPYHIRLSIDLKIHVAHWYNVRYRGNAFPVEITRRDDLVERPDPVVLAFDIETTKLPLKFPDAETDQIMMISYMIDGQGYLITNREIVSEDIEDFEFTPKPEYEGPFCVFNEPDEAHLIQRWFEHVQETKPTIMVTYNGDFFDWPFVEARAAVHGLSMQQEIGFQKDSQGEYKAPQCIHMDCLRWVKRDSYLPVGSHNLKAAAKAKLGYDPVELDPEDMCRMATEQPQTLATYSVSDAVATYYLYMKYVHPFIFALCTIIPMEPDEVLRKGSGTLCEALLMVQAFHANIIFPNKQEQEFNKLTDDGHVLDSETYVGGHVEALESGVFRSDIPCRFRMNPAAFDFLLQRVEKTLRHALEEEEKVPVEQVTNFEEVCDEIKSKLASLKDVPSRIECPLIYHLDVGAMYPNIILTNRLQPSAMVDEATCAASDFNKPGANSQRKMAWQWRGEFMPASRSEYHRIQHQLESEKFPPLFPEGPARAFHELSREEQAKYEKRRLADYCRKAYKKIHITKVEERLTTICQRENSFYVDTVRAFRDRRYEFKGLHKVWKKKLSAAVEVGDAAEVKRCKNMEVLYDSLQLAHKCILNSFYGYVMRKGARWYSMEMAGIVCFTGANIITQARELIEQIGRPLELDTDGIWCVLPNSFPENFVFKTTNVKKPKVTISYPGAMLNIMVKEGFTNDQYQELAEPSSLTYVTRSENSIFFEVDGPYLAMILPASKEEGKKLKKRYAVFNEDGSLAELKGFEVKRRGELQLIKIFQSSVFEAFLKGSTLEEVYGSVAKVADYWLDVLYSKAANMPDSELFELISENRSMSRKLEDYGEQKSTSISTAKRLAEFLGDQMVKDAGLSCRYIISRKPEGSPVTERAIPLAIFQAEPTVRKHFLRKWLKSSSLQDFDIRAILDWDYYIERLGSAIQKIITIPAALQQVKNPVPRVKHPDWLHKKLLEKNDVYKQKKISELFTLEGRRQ
Sequence of hPolεCD (insect), catalytic domain of DNA polymerase ε p261, iron-poor (7.3% iron) (Q07864 28-1194): as the sequence (Q07864 28-1194 C654S/C663S) above, with S627C, S636C counted along it
Sequence of hPolεCD (E. coli), catalytic domain of DNA polymerase ε p261, CysX [4Fe-4S] cluster (63% iron) (Q07864 28-1194): as the sequence (Q07864 28-1194 C654S/C663S) above, with S627C, S636C counted along it

B1: Octet 23-mer template / 11-mer 3'-ddC primer (dsDNA)
DNA 1: AATACATAAGCGCTCCAGGCAAT
DNA 2: GCCTGGAGCGC
modifications: 3'-dideoxycytidine on primer (strand 2)
Usually Kd stands for the concentration at which binding is half-saturated. As to B1, the Kd in data set [1] came out at 213 ± 43 nM; in data set [2], 167 ± 24 nM.

B2: 15-mer Cy3 primer alone (ssDNA)
DNA: GGACTCCGAGCTGCC
With B2, the binding result in data set [3] was “no binding”.
